The target in the test is T1, human epidermal growth factor receptor 2 (HER2) (Homo sapiens, UniProt P04626).
T1 construct: human HER2, cDNA expressed as HER2-T2A-mCherry; HER2 on the cell surface, mCherry intracellular after T2A self-cleavage; residues of it may stay on the C-terminus after self-cleavage (surmise); also called K562/HER2 cells; source: K562, lentiviral transduction with pCSII/HER2-mCherry, on the cell surface
Kind of test: flow cytometry on cells; K562/HER2 cells incubated with 0.5-1600 nM purified scFv-scFc-H6 for 90 min at 4 °C, detected with AF488-conjugated anti-HisTag antibody; 3% FBS-PBS. As to conditions: one partner purified. (In general: In flow cytometry, cells or beads pass a laser one at a time.)

The values that follow come from article PMC11133372 (Communications Biology, 2024).

B1: scFv(Niv), scFv of PD-1 targeting nivolumab, purified as scFv-scFc-H6 fusion protein (Fc fusion)
VH: QVQLVESGGGVVQPGRSLRLDCKASGITFSNSGMHWVRQAPGKGLEWVAVIWYDGSKRYYADSVKGRFTISRDNSKNTLFLQMNSLRAEDTAVYYCATNDDYWGQGTLVTVSS
VL: EIVLTQSPATLSLSPGERATLSCRASQSVSSYLAWYQQKPGQAPRLLIYDASNRATGIPARFSGSGSGTDFTLTISSLEPEDFAVYYCQQSSNWPRTFGQGTKVEIK
notes: scFv of nivolumab; Control scFv; not shown: single-chain Fc (two human IgG1 Fc domains; residues 104-330 of UniProt P01857), C-terminal, kept; His6, C-terminal, kept
As to B1, the binding result is listed as “no binding (tested: 1600 nM)”.

B2: scFv(Dac), scFv of the CD25-targeting monoclonal antibody daclizumab, purified as scFv-scFc-H6 fusion protein (Fc fusion)
VH: QVQLVQSGAEVKKPGSSVKVSCKASGYTFTSYRMHWVRQAPGQGLEWIGYINPSTGYTEYNQKFKDKATITADESTNTAYMELSSLRSEDTAVYYCARGGGVFDYWGQGTLVTVSS
VL: DIQMTQSPSTLSASVGDRVTITCSASSSISYMHWYQQKPGKAPKLLIYTTSNLASGVPARFSGSGSGTEFTLTISSLQPDDFATYYCHQRSTYPLTFGQGTKVEVK
notes: scFv of daclizumab; Control scFv; not shown: single-chain Fc (two human IgG1 Fc domains; residues 104-330 of UniProt P01857), C-terminal, kept; His6, C-terminal, kept
Consider B2, for which the binding result is “no binding (tested: 1600 nM)”.
